Measured values published in patent US20250197486A1 (Novartis, published 2025).

Target: T1, human VEGF165 (human, UniProt P15692 27-191)
T1 construct: mature; The canonical UniProt entry is a longer isoform, so the VEGF165 isoform must be chosen; also called recombinant VEGF165 protein; VEGF-A
Experiment: SPR, in vitro, recombinant VEGF165, 37 °C
Method: The brolucizumab: VEGF binding parameter values (Table 8) were defined on the basis of a surface plasmon resonance (SPR) in vitro binding experiment with drug and recombinant VEGF165 protein at 37° C. These in vitro measured brolucizumab: VEGF binding parameter values were then scaled similar to ranibizumab to obtain in vivo estimates. […] The scaling is performed such that the koff is kept constant and the kon is divided by the scaling factor.

T1 sequence (P15692 other isoform, or with tags, fused parts or gaps): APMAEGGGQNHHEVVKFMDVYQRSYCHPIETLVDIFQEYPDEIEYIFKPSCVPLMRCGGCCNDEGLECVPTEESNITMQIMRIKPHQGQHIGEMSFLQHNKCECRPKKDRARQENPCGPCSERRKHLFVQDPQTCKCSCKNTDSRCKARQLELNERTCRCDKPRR

Kd: 0.101 nM | koff: 0.00025 s⁻¹ | kon: 2.5e+06 M⁻¹ s⁻¹
B1: brolucizumab (scFv)
scFv: MEIVMTQSPSTLSASVGDRVIITCQASEIIHSWLAWYQQKPGKAPKLLIYLASTLASGVPSRFSGSGSGAEFTLTISSLQPDDFATYYCQNVYLASTNGANFGQGTKLTVLGGGGGSGGGGSGGGGSGGGGSEVQLVESGGGLVQPGGSLRLSCTASGFSLTDYYYMTWVRQAPGKGLEWVGFIDPDDDPYYATWAKGRFTISRDNSKNTLYLQMNSLRAEDTAVYYCAGGDHNSGWGLDIWGQGTLVTVSS
notes: Humanized scFv of about 26 kDa, VL-linker-VH; also called Beovu; drug
